Patent US20230137351A1

Molecular target: human beta-Klotho/FGFR1c complex on stable AM-1D cells (human) (UniProt Q86Z14)
UniProt Q86Z14, sequence (Q86Z14 whole entry, chain 1 of 2): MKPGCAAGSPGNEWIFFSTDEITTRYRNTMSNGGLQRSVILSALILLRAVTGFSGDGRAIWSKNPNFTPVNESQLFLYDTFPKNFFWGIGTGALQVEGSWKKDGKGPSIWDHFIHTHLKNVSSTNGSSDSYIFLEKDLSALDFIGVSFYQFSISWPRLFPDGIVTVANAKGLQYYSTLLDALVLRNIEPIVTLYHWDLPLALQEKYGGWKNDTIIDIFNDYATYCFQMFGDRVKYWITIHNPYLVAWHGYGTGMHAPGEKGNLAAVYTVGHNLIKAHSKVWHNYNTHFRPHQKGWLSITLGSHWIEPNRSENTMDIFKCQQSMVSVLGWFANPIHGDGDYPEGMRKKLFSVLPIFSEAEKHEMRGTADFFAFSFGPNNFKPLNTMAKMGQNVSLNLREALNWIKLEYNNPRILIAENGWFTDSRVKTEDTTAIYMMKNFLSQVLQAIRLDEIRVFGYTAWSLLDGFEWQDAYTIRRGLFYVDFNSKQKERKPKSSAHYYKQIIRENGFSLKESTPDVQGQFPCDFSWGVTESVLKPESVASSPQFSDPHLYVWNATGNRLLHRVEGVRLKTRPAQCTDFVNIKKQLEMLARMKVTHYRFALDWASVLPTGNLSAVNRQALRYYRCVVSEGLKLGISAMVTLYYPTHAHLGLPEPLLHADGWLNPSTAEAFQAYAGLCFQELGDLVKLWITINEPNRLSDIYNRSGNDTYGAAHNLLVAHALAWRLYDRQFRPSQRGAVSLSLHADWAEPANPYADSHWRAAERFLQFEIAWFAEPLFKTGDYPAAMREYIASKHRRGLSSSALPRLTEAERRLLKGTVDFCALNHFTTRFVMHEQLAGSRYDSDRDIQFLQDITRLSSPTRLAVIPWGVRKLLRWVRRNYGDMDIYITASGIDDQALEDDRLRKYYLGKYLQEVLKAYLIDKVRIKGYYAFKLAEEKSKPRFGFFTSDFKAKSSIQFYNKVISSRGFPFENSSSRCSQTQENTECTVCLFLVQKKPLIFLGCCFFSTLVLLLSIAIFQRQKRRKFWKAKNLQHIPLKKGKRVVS
UniProt Q86Z14, sequence (P11362 22-822, chain 2 of 2, further chain): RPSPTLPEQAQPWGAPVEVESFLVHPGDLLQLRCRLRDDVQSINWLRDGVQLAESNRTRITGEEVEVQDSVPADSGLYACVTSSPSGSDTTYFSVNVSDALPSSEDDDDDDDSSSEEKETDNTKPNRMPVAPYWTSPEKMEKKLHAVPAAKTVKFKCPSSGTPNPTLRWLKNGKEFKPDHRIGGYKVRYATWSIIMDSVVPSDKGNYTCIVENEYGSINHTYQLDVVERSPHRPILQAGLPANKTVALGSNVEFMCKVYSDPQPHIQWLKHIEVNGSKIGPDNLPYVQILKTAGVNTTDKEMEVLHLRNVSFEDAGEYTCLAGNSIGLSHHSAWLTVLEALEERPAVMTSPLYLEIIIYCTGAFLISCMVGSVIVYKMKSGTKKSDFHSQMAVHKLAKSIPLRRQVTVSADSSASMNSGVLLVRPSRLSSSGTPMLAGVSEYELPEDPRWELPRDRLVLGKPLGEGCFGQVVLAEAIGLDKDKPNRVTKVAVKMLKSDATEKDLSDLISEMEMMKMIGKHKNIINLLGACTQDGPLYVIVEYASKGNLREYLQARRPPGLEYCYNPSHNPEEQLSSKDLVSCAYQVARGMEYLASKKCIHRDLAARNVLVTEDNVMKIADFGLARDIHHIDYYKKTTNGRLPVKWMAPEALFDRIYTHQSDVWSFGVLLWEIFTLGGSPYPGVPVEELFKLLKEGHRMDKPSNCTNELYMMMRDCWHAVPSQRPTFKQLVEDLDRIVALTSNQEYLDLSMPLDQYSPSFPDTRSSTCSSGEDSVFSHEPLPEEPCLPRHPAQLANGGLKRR

adipocyte pERK assay: EC50 (read off the curve) [lower row]: 0.7 nM
Substance: FGF21 (from UniProt Q9NSA1 29-209) (ligand)
